The supplement of paper PMC9170038

System: MS2 coat protein
Assay: apparent KD of MS2 coat protein; designed switch direction (-1 OFF switch, 1 ON switch): -1; higher = weaker reporter binding
In short: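 The apparent KD reported per design is the median over clusters of curve fits to normalised cluster fluorescence. The RNA switches were transcribed on Illumina chips by stalled E. coli RNA polymerase. SNAP-549-labelled MS2 coat protein was titrated from 0.7 or 1.5 nM, doubling up to 3 µM, in Tris-HCl pH 7.5 buffer containing KCl, MgCl2, BSA, DTT, tRNA and Tween-20, with no input, 200 uM small-molecule ligand, or an oligonucleotide input.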

[1] = input ligand: microRNA oligo, concentration not stated
[2] = Eterna round: R95, input ligand: microRNA oligo, concentration not stated
[3] = Eterna round: R95, input ligand: FMN 200 uM
[4] = Eterna round: R95, input ligand: none

Row | Sequence | apparent KD of MS2 coat protein (input ligand: FMN 200 uM) [µM] | apparent KD of MS2 coat protein [1] [µM] | apparent KD of MS2 coat protein (input ligand: none) [µM] | apparent KD of MS2 coat protein [2] [µM] | apparent KD of MS2 coat protein [3] [µM] | apparent KD of MS2 coat protein [4] [µM]
1 | UUCGUACAGCAAAGCUGUACGCGUACAUGAGGAUCACCCAUGUAGGAUAUGGUAGGCAAAGCUUACUAGAAGGAUAGAGUGAUC [Mat - Exclusion NG 3 - Mod of JL - D76] (Eterna round: R96, puzzle: Exclusion NG 3) | 0.593 | 0.29 | 0.582 |  |  | 
2 | CGCAUACUAGGAUAUACAUGAGGAUCACCCAUGUCGCCGGGCCCACUCAUACUAAAACGUAGAAGGAGUUUGCC [Enlalari] (puzzle: Exclusion 3) |  |  |  | 0.0165 |  | 
3 | UCGCUGCGAGGAUAUACGUGCGCGCGCUCGCGUGCGCGCGUACAUGAGGAUCACCCAUGUAGAAGGCGCGCUGC [Apr-15 SS2-4] (puzzle: Exclusion 2) |  |  |  | 0.0134 |  | 
4 | UUAUACGUUGAGGAUAUGCGAAUAAGUAUAGUUGCAGAAGGCGAUACAUGAGGAUCACCCAUGUUCAUGGACAU [LRO-Ex6-04] (puzzle: Exclusion 6) |  |  |  | 0.106 |  | 
5 | AAGUACCGUCACGAUAGUGAUGGUACAACAAGCAUGUAAACAUGAGGAUCACCCAUGUCCUCGAAUGCUCGUCUUAU [Sensor 3 - 66] (puzzle: Sensor v3, turn-off variant 2) |  |  |  | 0.772 | 0.554 | 0.519
6 | ACGUUUUUUGAGGAUAUGCGAUAGUUUUAUAUCGUAGAAGGCGAUACAUGAGGAUCACCCAUGUUUAUGGGCAU [LRO-Ex6-20] (puzzle: Exclusion 6) |  |  |  | 0.155 |  | 
7 | ACAUGAGGAUCACCCAUGUGAAAAGAAUGGCUGACACAGAGAUAGGAUAUAUGUGCAUAUCUAACGUAGAAGGGUCAUGACUGG [Deportation 78 - Jieux - Exclusion NG 3] (Eterna round: R96, puzzle: Exclusion NG 3) |  | 0.0265 |  |  |  | 
8 | UACCCGUGAGGAUAUAGAGUCCUACACAUGAGGAUCACCCAUGUCAGCCUUAUCGUGGAUCUAGAAGGCAUAAACG [Eternabot (L1) Solution 88] (Eterna round: R97, puzzle: Exclusion 5) | 0.103 |  | 0.183 |  |  | 
9 | CACAUCAAAGGAUAUCUGGACCAAAACAUGAGGAUCACCCAUGUAUGAACAUGGCUCGACGGAGAAGGUUGGCUUC [Eternabot (L1) Solution 51] (Eterna round: R97, puzzle: Exclusion 5) | 0.0862 |  | 0.0793 |  |  | 
10 | GGUAUGGCCACAGGAUAUUGAGCCACAUGAGGAUCACCCAUGUGAGGACGUAGAAUCGCCUGGCCCAAGAAGGGUGAAGCCCAU [Eternabot solution 4] (Eterna round: R96, puzzle: Exclusion NG 2) | 0.0171 | 0.0131 | 0.028 |  |  | 
11 | UUAGCGUAUGUAAGGAUAUGCUGGUCUAAUGAUCAGCAGAAGGUACAUGAGGAUCACCCAUGUGUAUUCGUUAU [Mod of JL 7 - Jieux - Brourd's mod of Exclusion 4] (Eterna round: R97, puzzle: Brourd's mod of Exclusion 4) | 0.0759 |  | 0.0184 |  |  | 
12 | CUGAGGUAGCGGUCCUAUGACAUGAGGAUCACCCAUGUACCUUGCUUCGAGCUUUUAGCUCGUCUUAUGAUUCUCGG [Mat - Sensor v3 - turn-off var 1 - JL Mod - D36] (puzzle: Sensor v3, turn-off variant 1) |  |  |  | 0.502 | 0.423 | 0.522
13 | GGACAUGCAGGAUAUGUAAAAUUUGACAUGAGGAUCACCCAUGUAGAUCCUGAAUUUCCUGCAGAAGGGCAUGUCC [Mat - Exclusion 5 - Eli Mod - D18] (Eterna round: R97, puzzle: Exclusion 5) | 0.396 |  | 0.109 |  |  | 
14 | UAUAUAUAGUAAGGAUAUGUAUUAAUUGUAUAAACAGAAGGUACUGACAUGAGGAUCACCCAUGUUUUAGUGUGGGCAUGUAGA [JMF's solution 81] (Eterna round: R96, puzzle: Exclusion NG 1) |  | 0.0717 |  |  |  | 
15 | CUGAGGUAGCGGUCCUAUGACAUGAGGAUCACCCAUGUGCCUUGCUACAAGCUUUUUGCUCGUUUUAUGAUUCUCGG [JL Atriat mod 10] (puzzle: Sensor v3, turn-off variant 1) |  |  |  | 0.0646 | 0.0728 | 0.0835
16 | GGAAUACAUGAGGAUCACCCAUGUAAGGAUAUGCUGAUUAAAUUGGAUUAAUUAUGCAGCAGAAGGUACAAAAG [Mat - Mod of my Eli Mod D49] (puzzle: Exclusion 1) |  |  |  | 0.0823 |  | 
17 | AGUACUAACACGGAAGUGUUAGUACAAUAAGCUUGUGUUACAUGAGGAUCACCCAUGUCCUCAUAAGCUCGUCUUAA [Mat - Sensor v3 - Turn-off var 2 - D62] (puzzle: Sensor v3, turn-off variant 2) |  |  |  | 0.487 | 0.0484 | 0.0402

Row | Sequence | apparent KD of MS2 coat protein (input ligand: FMN 200 uM) [µM] | apparent KD of MS2 coat protein [1] [µM] | apparent KD of MS2 coat protein (input ligand: none) [µM] | apparent KD of MS2 coat protein [2] [µM] | apparent KD of MS2 coat protein [3] [µM] | apparent KD of MS2 coat protein [4] [µM]
18 | AUUGUUUAUGUAGGAUAUGCCUGGCGUGCCUUCGCAGAAGGACAUGAGGAUCACCCAUGUAUUGCGGUCUGCGUUCAGAUCGCG [salish99_ExNG1_r4_026] (Eterna round: R96, puzzle: Exclusion NG 1) | 0.0653 | 0.0343 | 0.0475 |  |  | 
19 | GCAGCAUAGAUAACAUACUGUUACAUGAGGAUCACCCAUGUACAGGAUAUGGUCUGGAUUACAGGCCAGAAGGGUACAAGCUGC [Eli exng3 - 021] (Eterna round: R96, puzzle: Exclusion NG 3) | 0.0108 | 0.00863 | 0.0121 |  |  | 
20 | ACAAGCUCUGUUGGGUGGUACAUGAGGAUCACCCAUGUUUUGCUCGUCUUGUGGGCCCGGGCCCGCGGCCCGGGCCC [-41.7, -69.7, A 12%] (Eterna round: R97, puzzle: Sensor, turn-off variant 1) | 0.513 |  | 0.807 |  |  | 
21 | GUGCAACAUGAGGAUCACCCAUGUCAGGAUAUGCGAAUUUCAUCAAAAGAUGAAAUUUGCAGAAGGGACUAUAC [Omei Ex1 A22] (Eterna round: R97, puzzle: Exclusion 1) | 0.0674 |  | 0.0385 |  |  | 
22 | AAGAUGUAAGGAUAUGCUGCUCGUCACAAAAGUGAUGAGUAGCAGAAGGUACAUGAGGAUCACCCAUGUAGAGA [Opal 38] (Eterna round: R96, puzzle: Exclusion 4) | 0.0606 | 0.0182 | 0.0227 |  |  | 
23 | AUCAUGGACGCAGGAUAUACAUGAGGAUCACCCAUGUAGUAUGAUCAGUGAUGGUCGUCGAUAGUGUAGAAGGGCGGCUAGUAG [random] (Eterna round: R96, puzzle: Exclusion NG 2) | 0.0344 | 0.0242 | 0.0328 |  |  | 
24 | AAGGGUACUUUCGGAACGACAUGAGGAUCACCCAUGUAUACUGAGGAUAUCCACUACUAAGGACGGGAGAAGGCAGUGUAAUGU [Ex NG3 #78] (Eterna round: R96, puzzle: Exclusion NG 3) | 0.0188 | 0.0136 | 0.0185 |  |  | 
25 | CAUACUGAAGUUAGGAUAUUCGAACGUAUACGGAUGGAGAAGGGACAUGAGGAUCACCCAUGUAGUUAGUAAAG [EX-4 Malc #10] (puzzle: Brourd's mod of Exclusion 4) |  |  |  | 0.0174 | 0.0173 | 0.0223
26 | GCUAGUCAUGUCAGGAUAUGCUGUACCUUGGUACAGCAGAAGGGACAUGAGGAUCACCCAUGUGCCUAGCUAGC [JL-BMX4-4.07] (Eterna round: R97, puzzle: Brourd's mod of Exclusion 4) | 0.412 |  | 0.0377 |  |  | 
27 | ACAAGCUUUUAGAUUUUCAACAUGAGGAUCACCCAUGUUCGUCUUGUGCUCGGGCUUGGGCGGUGUCCGGGUUUGGG [JL TOV1 3.77 sellena mod] (Eterna round: R97, puzzle: Sensor, turn-off variant 1) | 0.033 |  | 0.0347 |  |  | 
28 | CCCGUGUAAGGAUAUGACAAUGGUAUCUUCGGAUACCAUUGUCAGAAGGUACAUGAGGAUCACCCAUGUAACAC [Ex4-3: 14] (puzzle: Exclusion 4) |  |  |  | 0.028 |  | 
29 | AUUGUUUGAUACCUCUAAUACAUGAGGAUCACCCAUGUUAUCGAGGAUAUGCAUUAGAGUGGUUAGCAGAAGGCGAAGUAAUUG [JR_ExcNG3_Sub030] (Eterna round: R96, puzzle: Exclusion NG 3) | 0.0185 | 0.0142 | 0.0171 |  |  | 
30 | AGUACUAUCACGAAAGUGAUAGUACAAUAAACAAGUGAAACAUGAGGAUCACCCAUGUCCUCAUUUGCUCGUCUUAU [Sensor 3 - 1] (puzzle: Sensor v3, turn-off variant 2) |  |  |  | 0.389 | 0.146 | 0.183
31 | ACCUCACAUGAGGAUCACCCAUGUCAGGAUAUCUUUUAAAACGCGAAUCGCGUCGCUGAGAGAAGGGACAUUAA [EX1 #21] (Eterna round: R97, puzzle: Exclusion 1) | 0.0996 |  | 0.0391 |  |  | 
32 | GAGUACAGAGGAUAUACAUGAGGAUCACCCAUGUGUUUCAGCUAGGAGACUAGCGAAAGUAGAAGGCUGUACUU [salish99_ex3_r4_005] (Eterna round: R97, puzzle: Exclusion 3) | 0.0257 |  | 0.00849 |  |  | 
33 | UAAAGAGCAGGAUAUCUAAUGUAUCACAUGAGGAUCACCCAUGUCCAGCGAAAGCUGGAGGGAGAAGGGCUCUAAU [Mat - Exclusion 5 - Eli mod - D103] (puzzle: Exclusion 5) |  |  |  | 0.182 | 0.178 | 0.13
34 | UCUUGUGUUGAGGAUAUGCGCCGGCUCGCUGGCGCAGAAGGCGGCACAUGAGGAUCACCCAUGUCAGUUCGCGC [salish99_ex6_r004_007] (Eterna round: R97, puzzle: Exclusion 6) | 0.0563 |  | 0.205 |  |  | 
